Data published in article PMC7771633 (Cell, 2020).

How the values were obtained:
[1] = target: T1, HeV-RBP head domain (Hendra virus receptor binding protein, residues 185 – 604) (Hendra virus, UniProt O89343); assay: ELISA
[2] = target: full-length HeV-RBP expressed on the surface of mammalian cells (Hendra virus, UniProt O89343); assay: cell-based or functional assay
[3] = target: full-length NiVM RBP expressed on the surface of mammalian cells (Nipah virus, strain Malaysia, UniProt Q9IH62); assay: cell-based or functional assay
Chain of full-length NiVM RBP expressed on the surface of mammalian cells (Q9IH62 whole entry, the tested form may be a part): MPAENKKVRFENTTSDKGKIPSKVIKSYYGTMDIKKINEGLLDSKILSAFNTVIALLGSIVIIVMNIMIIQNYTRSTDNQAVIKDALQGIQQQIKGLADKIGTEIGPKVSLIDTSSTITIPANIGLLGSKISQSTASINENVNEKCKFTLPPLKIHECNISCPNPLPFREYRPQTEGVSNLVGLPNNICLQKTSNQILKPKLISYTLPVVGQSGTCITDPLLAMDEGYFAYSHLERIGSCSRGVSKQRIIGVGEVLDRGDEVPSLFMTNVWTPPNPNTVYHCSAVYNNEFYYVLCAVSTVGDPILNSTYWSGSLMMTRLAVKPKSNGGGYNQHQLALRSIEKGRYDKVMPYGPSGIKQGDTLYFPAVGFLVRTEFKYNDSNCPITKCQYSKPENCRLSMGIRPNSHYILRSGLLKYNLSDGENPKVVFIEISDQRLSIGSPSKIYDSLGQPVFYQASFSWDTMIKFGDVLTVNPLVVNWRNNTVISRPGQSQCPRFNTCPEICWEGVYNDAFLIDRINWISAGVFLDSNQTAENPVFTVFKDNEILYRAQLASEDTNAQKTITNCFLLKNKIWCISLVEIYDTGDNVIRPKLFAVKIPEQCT

[4] = target: T1, HeV-RBP head domain (Hendra virus …); assay: BLI
[5] = target: full-length NiVB RBP expressed on the surface of mammalian cells (Nipah virus, strain Bangladesh, UniProt Q4VCP5, strain); assay: flow cytometry on cells

T1 sequence (O89343 185-604): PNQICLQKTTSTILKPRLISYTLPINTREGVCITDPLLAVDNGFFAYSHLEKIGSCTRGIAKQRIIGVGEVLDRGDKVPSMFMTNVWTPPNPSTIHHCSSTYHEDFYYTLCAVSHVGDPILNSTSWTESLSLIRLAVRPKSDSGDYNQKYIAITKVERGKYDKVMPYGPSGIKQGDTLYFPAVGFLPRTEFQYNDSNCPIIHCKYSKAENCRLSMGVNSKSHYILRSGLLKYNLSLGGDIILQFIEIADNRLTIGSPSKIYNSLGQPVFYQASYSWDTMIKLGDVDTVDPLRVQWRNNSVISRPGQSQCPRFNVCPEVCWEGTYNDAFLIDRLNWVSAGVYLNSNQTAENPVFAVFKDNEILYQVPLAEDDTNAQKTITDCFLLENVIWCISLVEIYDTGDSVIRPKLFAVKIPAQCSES
Chain of full-length HeV-RBP expressed on the surface of mammalian cells (O89343 whole entry): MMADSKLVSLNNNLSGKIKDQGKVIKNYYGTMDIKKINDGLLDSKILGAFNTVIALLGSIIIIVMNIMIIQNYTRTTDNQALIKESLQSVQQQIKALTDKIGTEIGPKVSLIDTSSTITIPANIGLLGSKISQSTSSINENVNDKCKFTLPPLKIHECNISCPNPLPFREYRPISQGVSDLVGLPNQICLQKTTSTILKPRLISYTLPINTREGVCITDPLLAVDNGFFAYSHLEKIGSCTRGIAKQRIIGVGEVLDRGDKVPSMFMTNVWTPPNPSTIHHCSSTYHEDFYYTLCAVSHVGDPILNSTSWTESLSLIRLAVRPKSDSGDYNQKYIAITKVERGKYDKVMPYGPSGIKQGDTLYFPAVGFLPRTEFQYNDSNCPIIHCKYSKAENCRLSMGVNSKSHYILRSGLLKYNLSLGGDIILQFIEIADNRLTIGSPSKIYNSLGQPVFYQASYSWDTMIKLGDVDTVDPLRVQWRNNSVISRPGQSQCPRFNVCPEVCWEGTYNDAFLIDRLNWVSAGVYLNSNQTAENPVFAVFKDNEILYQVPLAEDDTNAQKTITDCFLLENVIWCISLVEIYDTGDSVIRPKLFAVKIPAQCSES

B1: HENV-32, human monoclonal antibody, IgG (antibody, V domains shown)
VH: QVQLVQSGAEVKKPGSSVKVSCKVSGGIFNRETINWVRQAPGQGLEWMGRITPIVDVPNYPRKFRGRVTITADKSTSTVYMELSGLRFEDTAIYFCARFRGHNYFDPWGQGTLVTVSS
VL: SYVLTQPPSVSVAPGQTARITCGGNNIGGKSVHWYQQKPGQAPVLVVYDDRDRPSGIPERFSGSNSGDTASLTISRVDAGDEADYFCQVWDNASDEAVFGGGTKLTVL
[1]
  Area under the curve: 3.71
[2]
  IC50 of neutralization of HeV (plaque reduction assay): 0.27 µg/mL
[3]
  IC50 of neutralization of NiVM (plaque reduction assay): 0.31 µg/mL

B2: HENV-32 Fab (Fab, V domains shown)
VH: QVQLVQSGAEVKKPGSSVKVSCKVSGGIFNRETINWVRQAPGQGLEWMGRITPIVDVPNYPRKFRGRVTITADKSTSTVYMELSGLRFEDTAIYFCARFRGHNYFDPWGQGTLVTVSS
VL: SYVLTQPPSVSVAPGQTARITCGGNNIGGKSVHWYQQKPGQAPVLVVYDDRDRPSGIPERFSGSNSGDTASLTISRVDAGDEADYFCQVWDNASDEAVFGGGTKLTVL
[4]
  Kd: 2.1 nM

B3: HENV-26, human monoclonal antibody, IgG (antibody, V domains shown)
VH: EVQLLESGGGLIQPGGSLRLSCAASGFTFSRFTMSWVRQPPGKGPEWVSGISGSGGHTYYADSVKGRFTISRDNSKNTLYLQMNSLKAEDTAVYYCAKDGFVGQQLMRRGPWWFDPWGQGTLVTVSS
VL: SYVLTQPPSVSVAPGQTARISCGGNNIGNKGVHWYQQKPGQAPVVVVYDDSDRPSGIPERFSGSNSGNTATLTISRVEAGDEADYYCQVWDSSSDHVVFGGGTKLTVL
[1]
  Area under the curve: 5.39
[5]
  binding result: binds
